6 molecules from US20200071424A1 (SHIONOGI, published 2020) can be followed below.

Read-outs that look alike come from different tables or passages of the source.

Assay [1] has as its target T1, baboon EL (baboon).
T1 construct: Heparin extract
The experiment in a line: ELISA: antibody captured on anti-mouse IgG-Fc plate, EL heparin extract added, detection with biotin anti-C2-tag antibody and HRP-streptavidin, A450. Here is the method:
(§1) Assay buffer containing 15 μl of anti-EL antibody was added to anti-mouse IgG-Fc antibody-immobilized microtiter plate, and incubated for 2 hr. […] After washing the wells three times with 90 μL of washing buffer, 15 μl of assay buffer containing biotin-labeled anti-C2-tag antibody and HRP-labeled Streptavidin were added to the wells and incubated at room temperature for 1 hr. After washing the wells three times with 90 μL of washing buffer, 15 μL of TMB+—Substrate—Chromogen (DAKO) was added and incubated at room temperature for 30 min and then 15 μL of 0.05 M H2SO₄ was added and absorbance at 450 nm was measured (FIG. 3A to 3K).
Background: ELISA stands for enzyme-linked immunosorbent assay.

Assay [2] addresses T2, mouse EL (mouse, UniProt Q9WVG5 21-500).
T2 construct: Heparin extract
T2 sequence (looked up): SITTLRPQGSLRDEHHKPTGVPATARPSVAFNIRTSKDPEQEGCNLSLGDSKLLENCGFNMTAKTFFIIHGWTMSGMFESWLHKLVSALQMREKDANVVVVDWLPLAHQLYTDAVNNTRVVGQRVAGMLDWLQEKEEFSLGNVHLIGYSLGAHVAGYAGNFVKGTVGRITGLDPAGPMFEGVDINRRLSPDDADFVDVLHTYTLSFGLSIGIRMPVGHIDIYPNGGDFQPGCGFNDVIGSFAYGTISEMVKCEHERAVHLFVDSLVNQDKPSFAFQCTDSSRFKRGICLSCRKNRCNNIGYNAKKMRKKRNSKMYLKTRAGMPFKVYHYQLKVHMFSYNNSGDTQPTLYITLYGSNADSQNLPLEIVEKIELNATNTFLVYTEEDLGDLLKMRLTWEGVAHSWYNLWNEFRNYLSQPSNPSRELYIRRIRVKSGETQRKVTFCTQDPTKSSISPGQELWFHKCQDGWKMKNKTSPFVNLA
Described as above. Here is the method:
as §1

For assay [3], the target named is T3, cynomolgus monkey EL (cynomolgus monkey).
T3 construct: Heparin extract; also called cynomolgus EL; Cynomolgus EL
The assay is described as above. Here is the method: as §1

Assay [4] concerns the target T4, human [1-157]-mouse chimeric EL (human; mouse, UniProt Q9WVG5 158-500).
T4 construct: Heparin extract, detected by an anti-C2-tag antibody
T4 sequence: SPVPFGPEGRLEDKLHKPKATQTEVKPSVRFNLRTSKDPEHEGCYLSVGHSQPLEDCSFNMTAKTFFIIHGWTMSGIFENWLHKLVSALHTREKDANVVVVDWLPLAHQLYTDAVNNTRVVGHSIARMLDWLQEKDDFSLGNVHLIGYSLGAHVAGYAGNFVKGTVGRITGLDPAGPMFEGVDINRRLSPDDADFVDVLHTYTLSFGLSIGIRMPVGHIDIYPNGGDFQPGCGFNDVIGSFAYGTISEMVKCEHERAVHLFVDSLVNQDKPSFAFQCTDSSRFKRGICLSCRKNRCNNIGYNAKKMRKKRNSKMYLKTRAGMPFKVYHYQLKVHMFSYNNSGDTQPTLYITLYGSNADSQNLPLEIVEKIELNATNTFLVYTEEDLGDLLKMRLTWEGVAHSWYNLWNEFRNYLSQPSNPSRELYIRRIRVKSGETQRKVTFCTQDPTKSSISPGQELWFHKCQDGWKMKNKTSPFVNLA
The assay is described as above. Here is the method: as §1

The target of assay [5] is T3, cynomolgus monkey EL. In words: cell-based or functional assay.
For assay [6], the target named is T1, baboon EL. The experiment in a line: cell-based or functional assay.
For assay [7], the target named is T3, cynomolgus monkey EL. The experiment in a line: cell-based or functional assay. The source holds these as a separate data set.
The target in assay [8] is human-mouse chimeric EL (construct not specified). In words: cell-based or functional assay.
In assay [9] the target is rabbit EL (rabbit). In words: cell-based or functional assay.
In assay [10] the target is T5, human [1-305]-mouse chimeric EL (human; mouse, UniProt Q9WVG5 306-500).
T5 construct: Heparin extract, captured or detected by an anti-C2-tag antibody; also called human-mouse chimeric EL
T5 sequence: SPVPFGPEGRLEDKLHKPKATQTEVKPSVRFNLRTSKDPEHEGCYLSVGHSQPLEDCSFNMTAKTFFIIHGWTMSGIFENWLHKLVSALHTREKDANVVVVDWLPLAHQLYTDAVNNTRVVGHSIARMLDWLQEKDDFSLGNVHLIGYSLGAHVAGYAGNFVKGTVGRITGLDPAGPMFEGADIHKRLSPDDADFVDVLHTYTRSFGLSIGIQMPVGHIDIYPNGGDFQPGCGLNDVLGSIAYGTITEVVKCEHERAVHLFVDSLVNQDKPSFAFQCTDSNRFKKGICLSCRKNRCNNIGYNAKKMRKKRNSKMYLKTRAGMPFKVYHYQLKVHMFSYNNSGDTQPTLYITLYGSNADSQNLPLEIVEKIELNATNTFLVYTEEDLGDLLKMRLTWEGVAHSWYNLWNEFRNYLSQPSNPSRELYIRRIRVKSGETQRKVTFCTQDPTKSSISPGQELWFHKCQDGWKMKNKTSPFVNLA
The experiment in a line: Biacore; EL captured by anti-C2-tag Ab; bivalent fit. Here is the method:
(§2) The binding affinities of anti-EL antibodies were measured using Biacore. […] Then, anti-EL antibodies were added and the binding affinities were calculated by bivalent fitting of BIAevaluation software.

Assay [11] has as its target T1, baboon EL. Described as above. Here is the method:
as §2

The target in assay [12] is T3, cynomolgus monkey EL. The description is as above. As for the experimental part: as §2
In assay [13] the target is T5, human [1-305]-mouse chimeric EL. In words: cell-based or functional assay.
In assay [14] the target is T1, baboon EL. In words: cell-based or functional assay. This is another data set of the same source.
Assay [15] deals with T2, mouse EL. In words: cell-based or functional assay.

B1: 23H8 (antibody, mouse IgG2a, V domains shown)
VH: EVQLQQSGPELLKPGASVKISCKASGYTFTDNTIHWVKQSHGKSLEWIGHINPYYGGTNNNEKFKDKATLTVDKSSSTAYMELRSLTSEDSAIYYCARKGIYYSSPFDYWGQGTTLTVSS
VL: DIQMTQTTSSLSASLGDRVTISCRASQDINNYLNWYQQKPDGTVKLLISYTSKLHSGVPSRFSGSGSGTDYSLTISNLEREDFATYFCQQGNTLPFTFGSGTNLEIK
notes: mouse IgG2a from hybridoma; also called 23H8 (mouse mAb)
Regarding B1, the EC50 (read off the curve) (in general, the concentration needed to bring the measured effect to its halfway point) in [1] is ~20 ng/mL; in assay [3] it was ~8 ng/mL; in [4], ~4 ng/mL. Besides, in assay [2], the binding result is on record as “no binding (tested: about 330 ng/mL)”. In addition, the “Neutralizing activity IC50” value stood at 1.4 nM in assay [5]; 3.2 nM in [6]; 2.7 nM in assay [7]; 1.7 nM in [8]; 67 nM in [9]; 1.7 nM in assay [13]. Also, the Kd in [10] turned out to be 0.87 nM; in assay [11], 2.9 nM; in [12], 6.1 nM. The koff (usually the first-order rate constant of dissociation) in assay [10] was 0.00011 s⁻¹; in assay [11], 0.00044 s⁻¹; in [12] it was 0.00075 s⁻¹. For the same molecule, the kon (commonly a measure of how fast the partners come together) in [10] was 120000 M⁻¹ s⁻¹; in assay [11] it was 150000 M⁻¹ s⁻¹; in assay [12] it was 120000 M⁻¹ s⁻¹.

B2: 53A11 (antibody, mouse IgG2a, V domains shown)
VH: EVQLQQSGPELLKPGASVKISCKASGYTFTDYTMHWVKQSHGKSLEWIGGINPYYGGTTYNEKFKDKATLTVDKSSSTAYMELRSLTSEDSAVYYCAKGDYYGGSYNYWGQGTTLTVSS
VL: DIVLTQSLATLSVTPGDSVSLSCRASQDISNSLHWYQQKSHESPRLLIKYASQSISGIPSRFSGSGSGTDFTLSINSVETEDFGMYFCQQSNSWPYTFGGGTKLEIK
notes: mouse IgG2a from hybridoma; also called 53A11 (mouse mAb)
For B2, the figures for the “EC50 (read off the curve)” value in assay [1], in assay [3] and in [4] were ~20 ng/mL, ~10 ng/mL and ~6 ng/mL, respectively. The binding result in assay [2] is reported as “no binding (tested: about 330 ng/mL)”. The “Neutralizing activity IC50” value in [5] turned out to be 2.7 nM; in assay [6], 2.4 nM; in assay [7], 1.9 nM; in assay [8], 2.3 nM; in assay [13] it was 2.6 nM. In addition, the results for the Kd in [10], in assay [11] and in [12] were 0.63 nM, 1.6 nM and 4.2 nM, respectively. In addition, the koff in assay [10] worked out at 0.00011 s⁻¹; in assay [11], 0.00026 s⁻¹; in assay [12], 0.00038 s⁻¹. Also, the figures for the kon in [10], in assay [11] and in [12] were 180000 M⁻¹ s⁻¹, 170000 M⁻¹ s⁻¹ and 91000 M⁻¹ s⁻¹, respectively.

B3: h16F6-S2 (antibody, V domains shown)
VH: QVQLVQSGAEVKKPGASVKVSCKASGYTFTTYWIAWVRQAPGQGLEWMGEILPGSAKTKYNKKFKGRVTMTRDTSTSTVYMELSSLRSEDTAVYYCAVYDYGADYWGQGTTVTVSS
VL: DIQMTQSPSSLSASVGDRVTITCKASQDVYTAVAWYQQKPGKSPKLLIYSASYRFTGVPSRFSGSGAGTDFTLTISSLQPEDFATYYCQQHYSIPRTFGGGTKVEIK
For B3, the “Neutralizing activity IC50” value in assay [14] came to 3.3 nM; in assay [15], 3 nM.

B4: h16F6-S3 (antibody, V domains shown)
VH: QVQLVQSGAEVKKPGASVKVSCKASGYTFTTYWIAWVRQAPGQGLEWMGEILPGSAKTKYNKKFKGRVTMTRDTSTSTVYMELSSLRSEDTAVYYCAVYDYGADYWGQGTTVTVSS
VL: DIQMTQSPSSLSASVGDRVTITCKASQDVYTAVAWYQQKPGKSPKLLIYSASYRFTGVPSRFTGSGAGTDFTLTISSLQPEDFATYYCQQHYSIPRTFGGGTKVEIK
As for B4, the results for the “Neutralizing activity IC50” value in assay [14] and in assay [15] were 3.1 nM and 3.3 nM, respectively.

B5: 13B3 (antibody, mouse IgG2a, V domains shown)
VH: EVQLQQSGPELLKPGASVKISCKASGYTFTEYTMHWVKQSHGKSLEWIGSINPYYGGTSYNEKFKDKATLTVDKSSNTAYMEFRSLTSEDCAVYYCARYGNYVGYFDYWGQGTTLTVSS
VL: ENVLTQSPAIMSASLGEKVTMSCRASSSVHYMYWYQQKSDASPKLWIYYTSNLAPGVPDRFSGSGSGNSYSLTISSMEGEDAATYYCQQFTSSPYTFGGGTKLEIK
notes: mouse IgG2a from hybridoma; also called 13B3 (mouse mAb)
Regarding B5, the concentration giving a half-maximal response (EC50 (read off the curve)) was ~20 ng/mL in [1], ~10 ng/mL in assay [3] and ~4 ng/mL in assay [4]. Further, the binding result in [2] is recorded as “no binding (tested: about 330 ng/mL)”. The “Neutralizing activity IC50” value in [5] was 3.1 nM; in assay [6], 2.6 nM; in assay [7] it was 1.7 nM; in assay [8], 4.1 nM; in assay [9] it was 13 nM; in assay [13], 4.1 nM. Further, the figures for the Kd in [10], in assay [11] and in assay [12] were 0.91 nM, 5.1 nM and 8.7 nM, respectively. The koff was 0.00014 s⁻¹ in assay [10], 0.00031 s⁻¹ in assay [11] and 0.00041 s⁻¹ in assay [12]. The kon in assay [10] amounted to 150000 M⁻¹ s⁻¹; in assay [11] it was 61000 M⁻¹ s⁻¹; in assay [12], 47000 M⁻¹ s⁻¹.

B6: 55A1 (antibody, mouse IgG2a, V domains shown)
VH: QIHLVQSGPELKKPGETVKISCKASGYTFTNYGMNWVKQAPGKGLKWMGWINTYSGVPTYAGDFKGRFAFSLETSASTAYLQINNLKNEDTATYFCARRGYYGRRYFDVWGTGTTVTVSS
VL: DIVLTQSPASLAVSLGQRATISCKASQSVDYDVDSYMHWYQQKPGQPPKLLIYAASNLASGIPARFSGGGSGTDFTLNIHPVEEEDVATYYCQQTIEDPPTFGGGTKLEIK
notes: mouse IgG2a from hybridoma; also called 55A1 (mouse mAb)
Regarding B6, the “EC50 (read off the curve)” value was ~10 ng/mL in [1], ~5 ng/mL in [3] and ~4 ng/mL in assay [4]. Besides, in assay [2], the binding result is “no binding (tested: about 330 ng/mL)”. The “Neutralizing activity IC50” value in [5] stood at 1.3 nM; in [6] it was 2 nM; in assay [7], 1.5 nM; in [8] it was 1.1 nM; in assay [13] it was 1.1 nM. The values for the Kd in [10], in [11] and in [12] were 0.73 nM, 1.2 nM and 1.7 nM, respectively. In addition, the figures for the koff in assay [10], in [11] and in [12] were 0.00014 s⁻¹, 0.00042 s⁻¹ and 0.00044 s⁻¹, respectively. Moreover, the kon in assay [10] is 190000 M⁻¹ s⁻¹; in [11] it was 350000 M⁻¹ s⁻¹; in [12] it was 250000 M⁻¹ s⁻¹.
